# Source: patent US7514534
# T1: MMP-26 (human)
# T1 sequence: ASDF
# B1: D08 (antibody, human IgG4, V domains shown)
# VH: EVQLLESGGGLVQPGGSLRLSCAASGFTFSFYAMWWVRQAPGKGLEWVSRIYSSGGKTWYADSVKGRFTISRDNSKNTLYLQMNSLRAEDTAVYYCARVGMSTYAFDIWGQGTMVTVSS
# VL: DIQMTQSPSSLSASVGDRVTITCRASQSISDYLNWYQQKPGKAPDLLIYAASSLQSGVPSRFSGSGSGTDFTLTVSSLQPEDFATYFCQQSYSIPLTFGGGTKVEITR
# B2: C05 (antibody, human IgG4, V domains shown)
# VH: EVQLLESGGGLVQPGGSLRLSCAASGFTFSSYQMDWVRQAPGKGLEWVSRIVPSGGDTTYADSVKGRFTISRDNSKNTLYLQMNSLRAEDTAVYYCARHVYYDSSDYFPNPFDYWGQGTLVTVSS
# VL: QSELTQPPSVSGTPGQRVTISCSGSSSNIGSEYVYWFQQLPGTAPRLLIYRNDQRPSGVPDRFSGSKSGTSASLAISGLRSEDETDYYCTTWDDSLSGPVFGGGTKLTVLG
# B3: C11 (antibody, human IgG4, V domains shown)
# VH: EVQLLESGGGLVQPGGSLRLSCAASGFTFSEYPMWWVRQAPGKGLEWVSWIYPSGGNTDYADSVKGRFTISRDNSKNTLYLQMNSLRAEDTAVYYCAIPYCSSSSCPLHWGQGTLVTVSS
# VL: QSELTQPPSASGSPGQSVTISCTGTSSDVGGYNYVSWYQQHPDKAPKLLIYEVTQRPSGVPDRFSGSRSGNTASLTVSGLQAEDEADYYCSSYAGRNNLYVFGPGTKVTVLG
# B4: D02 (antibody, human IgG4, V domains shown)
# VH: EVQLLESGGGLVQPGGSLRLSCAASGFTFSWYDMAWVRQAPGKGLEWVSRIVPSGGHTSYADSVKGRFTISRDNFKNTLYLQMNSLRAEDTAVYYCARRASRPEFFDYWGQGALVTVSS
# VL: DIQMTQSPSFLSASVGDRVTITCRASQGISTYLAWYQQKPGKAPKVLIYTASTLQSGVPSRFSGSGSGTEFTLTISSLQPEDFATYYCQQSYITPPEVTFGPGTKVDIKR
# B5: D06 (antibody, human IgG4, V domains shown)
# VH: EVQLLESGGGLVQPGGSLRLSCAASGFTFSGYIMEWVRQAPGKGLEWVSVIVSSGGFTMYADSVKGRFTISRDNSKNTLYLQMNSLRAEDTAVYYCARVGDSKGGYYLDYWGQGTLVTVSS
# VL: DIQMTQSPSSLSASVGDRVTITCRTSQIINTYLNWYQQKPGKAPKLLIYAASTLQGGVPSRFSGSGSGTDFTLTIKSLQPDDFATYYCQQSYTSPRTFGQGTKVEIKR
# B6: D07 (antibody, human IgG4, V domains shown)
# VH: EVQLLESGGGLVQPGGSLRLSCAASGFTFSEYNMFWVRQAPGKGLEWVSYIYSSGGSTDYADSVKGRFTISRDNSKNTLYLQMNSLRAEDTAVYYCARVGIAARPFDPWGQGTLVTVSS
# VL: QSELTQPASVSGSPGQSITISCTGTNSDIGGYNYVSWYQQHPGKVPKLLIFEVNNRPSGVSSRFSGSKSGDTASLTISGLQPEDEAVYYCGSFTVSVTYVFGTGTKVTVLG
# B7: C12 (antibody, V domains shown)
# VH: EVQLLESGGGLVQPGGSLRLSCAASGFTFSAYNMMWVRQAPGKGLEWVSRIYPSGGYTLYADSVKGRFTISRDNSKNTLYLQMNSLRAEDTAVYYCARQKLMIRAVRPFDYWGQGTLVTVSS
# VL: QSELTQPPSVSVSPAQTASITCSGDKLGDKYACWYQQKPGQSPVLVIYEDTKRPSGIPERFSGSNSGNTATLTISGTQVMDEADYYCQVWDSSTAVFGGGTKLTVLG
# B8: D04 (antibody, human IgG4, V domains shown)
# VH: EVQLLESGGGLVQPGGSLRLSCAASGFTFSDYQMMWVRQAPGKGLEWVSRISPSGGMTRYADSVKGRFTISRDNSKNTLYLPMNSLRAEDTAVYYCARSGPYYFDYWGQGTLVTVSS
# VL: DIQMTQSPSSLSASVGDRVAITCRASQSIDTYLNWYQQKPGKAPKLLIYAASKLEDGVPSRFSGSGTGTDFTLTIRSLQPEDFASYFCQQSYSSPGITFGPGTKVEIKR
# B9: C08 (antibody, human IgG4, V domains shown)
# VH: EVQLLESGGGLVQPGGSLRLSCAASGFTFSYYEMMWVRQAPGKGLEWVSSISPSGGPTMYADSVKGRFTISRDNSKNTLYLQMNSLRAEDTGVYYCARKMGRVGYCSSTSCYRDDYYGMDVWGQGTTVTVSS
# VL: DIQMTQSPPSLSALVGDRVTITCRASQSISRYVNWYQQKPGKAPKVLIYAASIVENGVPSRFSGSGSGTDFSLTISSLQPEDFATYYCQQTYSTPLTFGGGTKLAIKR
# Target: T1, MMP-26 (human)
# Assay: cell-based or functional assay
"% Inhibition of JEG-3 cell invasion, 1 µg/ml (further test) [%]","% Inhibition of JEG-3 cell invasion, 5 µg/ml (first test) [%]","% Inhibition of JEG-3 cell invasion, 5 µg/ml (further test) [%]","% Inhibition of JEG-3 cell invasion, 25 µg/ml (first test) [%]","% Inhibition of JEG-3 cell invasion, 25 µg/ml (further test) [%]","% Inhibition of JEG-3 cell invasion, 50 µg/ml (further test) [%]",Binder
56,36,50,35,76,53,B1
–,16,–,32,–,–,B2
–,28,–,29,–,–,B3
–,36,–,25,–,–,B4
–,0,–,35,–,–,B5
–,21,–,36,–,–,B6
36,49,35,38,49,27,B7
47,38,34,34,45,52,B8
34,45,42,49,49,62,B9
